Results: patent US20200199204A1 (UNITED STATES OF AMERICA AS REPRESENTED BY THE SECRETARY …, published 2020)

Columns and labels:
Test in all cases: cell-based or functional assay
HIV-1 Env of TRJO.58 = HIV-1 Env of TRJO.58 (HIV-1)
HIV-1 Env of MB201 = HIV-1 Env of MB201 (HIV-1)
HIV-1 Env of DU172.17 = HIV-1 Env of DU172.17 (HIV-1)
HIV-1 Env of UG037.8 = HIV-1 Env of UG037.8 (HIV-1)
HIV-1 Env of C1080.c3 = HIV-1 Env of C1080.c3 (HIV-1)
HIV-1 Env of 191821.E6.1 = HIV-1 Env of 191821.E6.1 (HIV-1)
HIV-1 Env of TH976.17 = HIV-1 Env of TH976.17 (HIV-1)
HIV-1 Env of KER2018.11 = HIV-1 Env of KER2018.11 (HIV-1)
HIV-1 Env of MB539.2B7 = HIV-1 Env of MB539.2B7 (HIV-1)
HIV-1 Env of THRO.18 = HIV-1 Env of THRO.18 (HIV-1)
HIV-1 Env of RHPA.7 = HIV-1 Env of RHPA.7 (HIV-1)
HIV-1 Env of Q769.d22 = HIV-1 Env of Q769.d22 (HIV-1)
HIV-1 Env of TRO.11 = HIV-1 Env of TRO.11 (HIV-1)
HIV-1 Env of 3016.V5.c36 = HIV-1 Env of 3016.V5.c36 (HIV-1)
HIV-1 Env of CAP256.PI = HIV-1 Env of CAP256.PI (HIV-1)
HIV-1 Env of CAP45.G3 = HIV-1 Env of CAP45.G3 (HIV-1)
HIV-1 Env of CM244.ec1 = HIV-1 Env of CM244.ec1 (HIV-1)
HIV-1 Env of 6535.3 = HIV-1 Env of 6535.3 (HIV-1)
HIV-1 Env of Q842.d12 = HIV-1 Env of Q842.d12 (HIV-1)
HIV-1 Env of RW020.2 = HIV-1 Env of RW020.2 (HIV-1)
HIV-1 Env of ZM214.15 = HIV-1 Env of ZM214.15 (HIV-1)
HIV-1 Env of CAP244.D3 = HIV-1 Env of CAP244.D3 (HIV-1)
HIV-1 Env of ZM109.4 = HIV-1 Env of ZM109.4 (HIV-1)
HIV-1 Env of Q259.d2.17 = HIV-1 Env of Q259.d2.17 (HIV-1)
HIV-1 Env of Q23.17 = HIV-1 Env of Q23.17 (HIV-1)
HIV-1 Env of REJO.67 = HIV-1 Env of REJO.67 (HIV-1)
HIV-1 Env of CAP210.E8 = HIV-1 Env of CAP210.E8 (HIV-1)
HIV-1 Env of DU156.12 = HIV-1 Env of DU156.12 (HIV-1)
HIV-1 Env of CAP256.SU = HIV-1 Env of CAP256.SU (HIV-1)
HIV-1 Env of Q461.e2 = HIV-1 Env of Q461.e2 (HIV-1)
HIV-1 Env of DU422.01 = HIV-1 Env of DU422.01 (HIV-1)
HIV-1 Env of Q168.a2 = HIV-1 Env of Q168.a2 (HIV-1)
HIV-1 Env of CNE3 = HIV-1 Env of CNE3 (HIV-1)
HIV-1 Env of AC10.29 = HIV-1 Env of AC10.29 (HIV-1)
HIV-1 Env of 0260.v5.c36 = HIV-1 Env of 0260.v5.c36 (HIV-1)
HIV-1 Env of ZM135.10a = HIV-1 Env of ZM135.10a (HIV-1)
HIV-1 Env of 6405.v4.c34 = HIV-1 Env of 6405.v4.c34 (HIV-1)
Env of SIVmac251.30 = Env of SIVmac251.30 (SIV (printed as nonHIV))
HIV-1 Env of ZM53.12 = HIV-1 Env of ZM53.12 (HIV-1)
HIV-1 Env of BG505.w6m = HIV-1 Env of BG505.w6m (HIV-1)
HIV-1 Env of SC422.8 = HIV-1 Env of SC422.8 (HIV-1)
HIV-1 Env of QH0692.42 = HIV-1 Env of QH0692.42 (HIV-1)
HIV-1 Env of WITO.33 = HIV-1 Env of WITO.33 (HIV-1)
HIV-1 Env of ZM197.7 = HIV-1 Env of ZM197.7 (HIV-1)
HIV-1 Env of ZM233.6 = HIV-1 Env of ZM233.6 (HIV-1)
HIV-1 Env of CAAN.A2 = HIV-1 Env of CAAN.A2 (HIV-1)
HIV-1 Env of KER2008.12 = HIV-1 Env of KER2008.12 (HIV-1)
HIV-1 Env of 96ZM651.02 = HIV-1 Env of 96ZM651.02 (HIV-1)
HIV-1 Env of PVO.04 = HIV-1 Env of PVO.04 (HIV-1)
HIV-1 Env of ZM249.1 = HIV-1 Env of ZM249.1 (HIV-1)

B1: CAP256-VRC26.06 (antibody, V domains shown)
VH: EVQLIESGGGVVQPGRSLRLSCGASGFSFNNYGMHWVRQAPGKGLEWVAGISFAGIKKYYGTSVKGRFTISRDNSKNNFYLQMNSLRVEDTALYYCARDLRELECEEWTLYNYYDFGSRGPCVDPRGVAGSFDVWGQGTMVTVSS
VL: QSVLTQPPSVSAAPGQKVTISCSGSTSKIGQNSVSWYQQLPGTAPKLLIYENDRRPSGTPDRFSGSKSGTSATLAITGLQTGDEAEYYCETWDGSGGVFGTGTKVTVLG
neutralization IC50 (HIV-1 Env of TRJO.58): > 50 µg/mL | neutralization IC50 (HIV-1 Env of MB201): > 50 µg/mL | neutralization IC50 (HIV-1 Env of DU172.17): > 50 µg/mL | neutralization IC50 (HIV-1 Env of UG037.8): > 50 µg/mL | neutralization IC50 (HIV-1 Env of C1080.c3): > 50 µg/mL | neutralization IC50 (HIV-1 Env of 191821.E6.1): > 50 µg/mL | neutralization IC50 (HIV-1 Env of TH976.17): > 50 µg/mL | neutralization IC50 (HIV-1 Env of KER2018.11): > 50 µg/mL | neutralization IC50 (HIV-1 Env of MB539.2B7): > 50 µg/mL | neutralization IC50 (HIV-1 Env of THRO.18): 4.25 µg/mL | neutralization IC50 (HIV-1 Env of RHPA.7): > 50 µg/mL | neutralization IC50 (HIV-1 Env of Q769.d22): > 50 µg/mL | neutralization IC50 (HIV-1 Env of TRO.11): > 50 µg/mL | neutralization IC50 (HIV-1 Env of 3016.V5.c36): > 50 µg/mL | neutralization IC50 (HIV-1 Env of CAP256.PI): 0.03 µg/mL | neutralization IC50 (HIV-1 Env of CAP45.G3): > 50 µg/mL | neutralization IC50 (HIV-1 Env of CM244.ec1): > 50 µg/mL | neutralization IC50 (HIV-1 Env of 6535.3): > 50 µg/mL | neutralization IC50 (HIV-1 Env of Q842.d12): > 50 µg/mL | neutralization IC50 (HIV-1 Env of RW020.2): > 50 µg/mL | neutralization IC50 (HIV-1 Env of ZM214.15): > 50 µg/mL | neutralization IC50 (HIV-1 Env of CAP244.D3): > 50 µg/mL | neutralization IC50 (HIV-1 Env of ZM109.4): > 50 µg/mL | neutralization IC50 (HIV-1 Env of Q259.d2.17): > 50 µg/mL | neutralization IC50 (HIV-1 Env of Q23.17): > 50 µg/mL | neutralization IC50 (HIV-1 Env of REJO.67): > 50 µg/mL | neutralization IC50 (HIV-1 Env of CAP210.E8): 0.729 µg/mL | neutralization IC50 (HIV-1 Env of DU156.12): > 50 µg/mL | neutralization IC50 (HIV-1 Env of CAP256.SU): 0.055 µg/mL | neutralization IC50 (HIV-1 Env of Q461.e2): > 50 µg/mL | neutralization IC50 (HIV-1 Env of DU422.01): > 50 µg/mL | neutralization IC50 (HIV-1 Env of Q168.a2): > 50 µg/mL | neutralization IC50 (HIV-1 Env of CNE3): > 50 µg/mL | neutralization IC50 (HIV-1 Env of AC10.29): 0.022 µg/mL | neutralization IC50 (HIV-1 Env of 0260.v5.c36): > 50 µg/mL | neutralization IC50 (HIV-1 Env of ZM135.10a): > 50 µg/mL | neutralization IC50 (HIV-1 Env of 6405.v4.c34): > 50 µg/mL | neutralization IC50 (Env of SIVmac251.30): > 50 µg/mL | neutralization IC50 (HIV-1 Env of ZM53.12): 0.222 µg/mL | neutralization IC50 (HIV-1 Env of BG505.w6m): > 50 µg/mL | neutralization IC50 (HIV-1 Env of SC422.8): 0.178 µg/mL | neutralization IC50 (HIV-1 Env of QH0692.42): > 50 µg/mL | neutralization IC50 (HIV-1 Env of WITO.33): 0.003 µg/mL | neutralization IC50 (HIV-1 Env of ZM197.7): > 50 µg/mL | neutralization IC50 (HIV-1 Env of ZM233.6): > 50 µg/mL | neutralization IC50 (HIV-1 Env of CAAN.A2): > 50 µg/mL | neutralization IC50 (HIV-1 Env of KER2008.12): > 50 µg/mL | neutralization IC50 (HIV-1 Env of 96ZM651.02): > 50 µg/mL | neutralization IC50 (HIV-1 Env of PVO.04): 0.308 µg/mL | neutralization IC50 (HIV-1 Env of ZM249.1): > 50 µg/mL
